Results published in publication PMC7506556, “Structure and function of bacteriophage CBA120 ORF211 (TSP2), the determinant of phage specificity towards E. coli O157:H7” (Scientific Reports, 2020).
Residue numbers refer to the chain shown, from its start. In names and notes the source's numbering stands.

B1: E456A:E483A TSP1 (enzyme)
chain: MNEMFSQGGKGSTGILTNKQAVARHFGVKQSEVVYFSVGVDLGGYKVIYDKETQRAYSLPVGIASGTTAVSLSTAAVLVHSAGSVDLGSLAVSREEYVTLPGSFDSGSTLNVKNELLTYTDGKYRWDGILPKTVAPGSTPASTGGVGLGAWISVGDASLRTQLANGDGSLIGIHPQGTLNNVLTVRTPEQYNAVGDGIADDTSKLKEMLSDINNVPETLPDAAAVNSYMEQVAVKIDLTKLYRFTETLYIPPGVSIEIPTSNFFTRECKQGLFYDPVDKNTAAISLMVYRKQPDGSYKLNKDVDYYPTGLDIDNGDAITCARKIDINNLNLITAPGVKVGVKWIGGAGCTTKGLSIGENTGSDITTARLPRVGLLQSASWGSIHENLRILYKTQGAVFIDSNGGAAVNNAYISRLGNTNGELEQAVYKPAGFTEVGDVAVTQFAGSEVKFNSPIIAQASFDFVHAGRDTDSYGLFMVDKPHIASSGGKKKHSFYLINTSSNVTLSGVGLSGQDPDLDSMYFLKNCPETARNVVRGQMPISGVKLVRGTGNYPTLVLDCTNMGSQFQFGEVGDIFYIKDVVGVKADTLYIDPVNGNNYNWGTNGTKPIRELTNIAKICQLFRCKSVYLNAGESVITSNTELPMVVFEGPGSLKANSGSSFLIKAGGTLSLIGLSGISTDGGHMFRVSTVEKVNIHTNCSVNAGAAYVVLSEVQGNIEYRQLFYSVNCSKYIGATAGQTIAGIMVKTATRPTGIDAAPVDGNVSLTYKIIES
notes: source: E. coli BL21(DE3), purified similar to wild type TSPs
B2: E456Q:E483Q TSP1 (enzyme)
chain: B1 chain with A456Q, A483Q
notes: as for B1
B3: D313N:E456Q:E483Q TSP1 (enzyme)
chain: B1 chain with D313N, A456Q, A483Q
notes: as for B1
B4: TSP2 D506N:D571N:Y623A mutant (enzyme, UniProt G3M190 1-921, looked up)
chain: MTRNVEELFGGVITAPHQIPFTYKSNVGGETFLSLPFYPVTGVVTINGGMQVPLDNFEIEGNTLNLGRALSKGDVVYCLFDKILSPEDTAKGIRIYKFQAVGGETEFTPDFTSYGVQSLYIGGEYKTPEIEYSYDSTTGKVSLQTALSAGVWVVAEMSVKQPNISPAFDRSIQEIARSANVKDSEVIVSTDTISLLDGKKVVYDIATQTSYGLPTIPDGSVISSVSAGKLNYNPGDVQVDLLPLEDSFINVINTLGRNDGAKYIGECHSVADLRNTEPTMDGQRIILKQHTAGTLLGGGVFRALIDGTGKTDNNGTVIKTVGGAAWLRVNADRVNPFMFGALGGSNDDTIPVQSCVDSGKATQLTDAHYVSNIQLKYNTSSIYGSGLHYSRLHQLPSATGNCITIKDTCSLIVLDAFGVYGTGAQQGTSFTAGTTGIYVETPSGLSADYPFHTTADPRRDLCISKVHIAGFDEYGLNIDSGNFSVTTDSLLVNHINQVGVRCATTNWTWTNIQVNTCGKQCLVLDGCGNGRIIGGKFIWANWQPYGTVGQFPGITINNSQNMVINGIEVQNCGGNGIEISESYSISMNGLNTNRNGINANNTFYNIVFNKSDAVINGFVGLNAAANSGSGANSSAGNFQFLSNDCSVTINGVVETGYMGINFIGDNNIINPTNSDLSINGLVNYSKTGLQTMNETPTFDGVSTTPVYVSVPSSVGQVNGLRLSQANKDKLLYSRTAGPEGITMAAVIVPTISGAEVFNFMAIGSGFSDTSNSLHLQLVIDASGKQTIALLLGGDGTTQILSGDLPNDLKLQSGVPYHIAIGAKPGYFWWSILNIQTGKRIRRSFRGAYLAVPFNSIFGLTSSLTFFSDSNAGGDACSGVGAKVYVGMFSSENDYVASRYYNLINPVDPTKLISYRILDSSI
notes: Made by Q5 site-directed mutagenesis of the TSP2 plasmid; source: E. coli BL21(DE3), purified similar to wild type TSPs

Tests used:
[1] = molecular target: the molecule itself; experiment: not stated; purified TSP1 site-directed mutants; how the trimeric state was shown is not told
[2] = molecular target: the molecule itself; experiment: not stated; purified TSP2 site-directed mutants; how the trimeric state was shown is not told

Row | Protein | stoichiometry N [1] | stoichiometry N [2]
1 | B1 | 3 | –
2 | B2 | 3 | –
3 | B3 | 3 | –
4 | B4 | – | 3
